Measured values reported in the nanobody polyreactivity screen of Harvey et al. (2022).

Assay: yeast display, Sf9 membrane polyspecificity reagent, FACS + sequencing; frameworks hold sequencing errors
Summary of the method: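 Using colony PCR, genes from sorted yeast display clones were amplified, then sequenced on MiSeq at 2 × 250 and filtered by CDR length. The clones had been stained with 10% biotinylated, detergent-solubilized Sf9 membrane reagent for 1 hour at 4 °C and sorted by FACS into low and high (top ~1%) gates on anti-HA and streptavidin fluorescence. Polyreactivity labels come from the gate of origin.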

Sequence | polyreactivity (PSR sort gate)
QVQLVESGGGLVQAGGSLRLSCAASGSIFGYYAMGWSRQAPGKERELVAAISKSGGRTYYADSVKGRFTISRDNAKNTVYLQMNSLKPEDTAVYYCAAVLWYDIYYGGDYWGQGTQVTVSS | high polyreactivity
QVQLVESGGGLVQAGGSLRLSCAASGSIFGYYAMGWYRQAPGKERELVAAISSGGSTKYADSVKGRFTISRDNAKNTVYLQMNSLKPEDTAVYYFNAAYSQIRFNYRGQGTQVTVSS | high polyreactivity
QVQLVESGGGLVQAGGSLRLSCAASGSIFGYYAMGWYRQAPGKERELVAAISTSGGRTYYADSVKGRFTISRDNAKNTVYFQMNSLKPEDTAVYYCAARVYSTSVVAYYYWGQGTQVTVSS | high polyreactivity
QVQLVESGGGLVQAGGSLRLSCAASGSIFGYYAMGWYRQAPGKERELVAAISWSGGRTYYADSVKGRFTISRDNAKNTVYLQMNSLKPEDTAVYYCNARWRSGPRAYDYWGQGTQVSVSS | high polyreactivity
QVQLVESGGGLVQAGGSLRLSCAASGSIFGYYTMGWYRQAPGKERELVAAITRSGATTFYADSVKGRFTISRDNAKNTVYLQMNSLKPEDTAVYYCAAKARGYTRGYWGQGTQVTVSS | high polyreactivity
QVQLVESGGGLVQAGGSLRLSCAASGSIFGYYTMGWYRQAPGKERELVARITRGGSTYYADSVKGRFTISRDNAKNTVYLQMNSLYPEDTSVYYCNAEIWTEGGYWGQGSQVTVSS | low polyreactivity
QVQLVESGGGLVQAGGSLRLSCAASGSIFGYYTMGWYRQAPGKERELVATINWSGGNTYYADSVKGRFTISRDNAKNTVYLQMNSLKPEDTAVYYCATRPRRGTSENGYWGQGTQVTVSS | high polyreactivity
QVQLVESGGGLVQAGGSLRLSCAASGSIFGYYTMGWYRQAPGKERELVATISRSGGSTYYADSVKGRFTISRDNAKNTVYLQMNSLKPEDTAVYYCAARSWGGYDSRGYWGQGTQVTVSS | high polyreactivity
QVQLVESGGGLVQAGGSLRLSCAASGSIFGYYVMGWYRQAPGKERELVAAISGSDSSTYYADSVKGRFTISRDNAKNTVYLQMNSLKPEDTAVYYCNADLRYYPVEFDYWGQGTQVTVSS | low polyreactivity
QVQLVESGGGLVQAGGSLRLSCAASGSIFHDYAMGWYRQEHGKERELVAVISTSGGSTYYADSVKGRFTISRDNAKNTDYLQMNSLKPEYTAVYYCNARTVGPYPSQAALEYDSGGQGTQVTVSS | low polyreactivity
QVQLVESGGGLVQAGGSLRLSCAASGSIFHGNAMGWNRQAPGKERELVATISSGGSTYYADSVKGRFTISRDNAKNTVYLQMNSLKPEDTAVYYCAAEYWNGPYYGDPFEYDYWGQGTQVTVSS | low polyreactivity
QVQLVESGGGLVQAGGSLRLSCAASGSIFHGYAMGWYRHAPGKERELVAAITWSGGRTYYADSVKGRFTISRDNAKNNVYLQMNSLKPEDTAVYYCAAVALTRRYDYWGQGTQVTVSS | high polyreactivity
QVQLVESGGGLVQAGGSLRLSCAASGSIFHGYAMGWYRQAHGKETELVAVITRGGNTYYADSVKGRFTISRDNAKNTVYLQMNSLKPEDTAVYYCNKAVDRGRRAYGYWGQGTQVTVSS | high polyreactivity
QVQLVESGGGLVQAGGSLRLSCAASGSIFHGYGMGWYRPAPGKERELVASITWIGGDTYYADSVKGRFTISRDNAKNTVYLQMNSLKPEDTAVYYCNAEWVVTYIYDYWGQGTQVTVSS | low polyreactivity
QVQLVESGGGLVQAGGSLRLSCAASGSIFHINAMGWYRQAPGKERELVAAISSADRTYYADSVKGRFTISRDNAMNTVYLQMNSLKPEDTAVYYCAAVYYRYPYEYWGQGTQVTVSS | high polyreactivity
QVQLVESGGGLVQAGGSLRLSCAASGSIFHPNAMGWYRQAPGKERELVAAISIGGDTYYADSVKGRFTISRDNAKNTVYLQMNSLKPEDTAVYYCAVTYVGHVYEYYYWGQGTQVTVSS | low polyreactivity
QVQLVESGGGLVQAGGSLRLSCAASGSIFHQYAMGWYRQAPGKERELVAAISANGGRTYYADSVKGRFTISRDNAKNTVYLQMNSLIPEDTAVYYCAASRPSYGVRYGYWGQGTQVTGSS | high polyreactivity
QVQLVESGGGLVQAGGSLRLSCAASGSIFHRNTMGWYRQAPGKERELVAAIRRGGSTYYADSVKGRFTISRDNAKNTVYLQMNSLKPEDTAVYYCAADFPGEYYYWGQGTQVTVSS | high polyreactivity
QVQLVESGGGLVQAGGSLRLSCAASGSIFHRYAMGWYRQAPGKERELVAAISWRGSSTYYADSVKGRFTISRDNAKNTVYLQMNSLKPEDTAVYYCNARGGSRRRYDYWGQGTQVTVSS | high polyreactivity
QVQLVESGGGLVQAGGSLRLSCAASGSIFHTYAMGWYRQAPGKEWELVAAISTDGSTYYADSVKGRFTISRDNAKNTVYLQRNSLKPEDTAVYYCNVAAKYDSFHRGITWYDYWGQGTQVTVSS | low polyreactivity
QVQLVESGGGLVQAGGSLRLSCAASGSIFHTYLMGWYRQAPGKERELVASSTRSGGSTYYADSVKGRFTISRDNAKNTVYLQMNSLKPEDTAVYYCAATYRTANHRYYYWGQGTQVTVSS | high polyreactivity
QVQLVESGGGLVQAGGSLRLSCAASGSIFHYNAMGWYRQAPGKERELVAAITSGGSTYYADSVKGRFTISRDNAKKTVYLQMNSLKPEDTAVYYCATVFYRTRYVPYGYWGQGTQVTVSS | low polyreactivity
QVQLVESGGGLVQAGGSLRLSCAASGSIFHYNAMGWYRQAPGKERELVARISVNGGRTYYADSVKGRFTISRDNAKNTDYLQMNSLKPEDTAVYYCAVEGVWRSFFYGYDSWGQGTQVTVSS | low polyreactivity
QVQLVESGGGLVQAGGSLRLSCAASGSIFHYYAMGWYRQAPGKERELVAAISWSGGRTNYADSVKGRFTISRDNAKNTVYLQMNSLKPEDTAVYYCAAAERSYSGGGKIGKYYYWGQGTQVTVSS | high polyreactivity
QVQLVESGGGLVQAGGSLRLSCAASGSIFIANAMGWYRQAPGKERELVAAITLNGGSTYYADSVKGRFTISRDNAKNTVYLQMNSLKPEDTAVYYCAADWVWVAPQYWIDEYDYWGQGTQVTVSS | low polyreactivity
QVQLVESGGGLVQAGGSLRLSCAASGSIFIANAMGWYRQAPGKERELVASISSGGSTNYADSVKGRFTISRDNAKNTVYLQMNSLKPEDTAVYYCAADGTDDYGGDFYLWVDYWGQGTQVTVSS | low polyreactivity
QVQLVESGGGLVQAGGSLRLSCAASGSIFIAYGMVWYRQEPGKERELVAAITVSGGNTYYADSVKGRFTISRDNAKNTVYLQMNSLKPEDTAVYYCAADYWYYYGKVLYDYWGQGTQVTVSS | low polyreactivity
QVQLVESGGGLVQAGGSLRLSCAASGSIFIDYAMGWYRQAPGKERELVAAISWSGGSTYYADSVKGRFTISRDNAKNTVYLQMNSLKPEDTAVYYCAAYSHVSIWYDYDYWGQGTQVTVSS | low polyreactivity
QVQLVESGGGLVQAGGSLRLSCAASGSIFIGNTMGWYRPAPGNERELVATIRRSGSRTYYADSVKGRFTISRDNAKNTVYLQMNSLKPEDTAVYYCAADRLRTSGYKTIYDYWGQGTQVTVSS | low polyreactivity
QVQLVESGGGLVQAGGSLRLSCAASGSIFIGYAMGWYRQAPGKERELVAAISWSGDSTYYADSVKGRFTISRDNAKNTVYLQMNSLKPEDTAGYYCAADDLDYDNYYQITGEYDYWGQGTQVTVSS | high polyreactivity
